Measurements as given in patent US7378397B2 (The Provost, Fellows and Scholars of the College of the …, priority 2000, dated 2008).
Each block holds one molecule with its values, some of them ahead of it.

How the values were obtained:
Assay type in all cases: biochemical, porcine
TRH-DE [1] = target: T1, TRH-DE (Sus scrofa, UniProt A0A287AP33); experiment: HPLC assay of peptide hydrolysis by TRH-DE (Glp production)
T1 construct: The inventor purified TRH-DE from porcine brain according to purification procedures previously published by Dr. K. Bauer; from tissue; host or cells: porcine brain (TRH-DE); bovine kidney (DPP-IV, gift from Dr. C. H. Williams)
Procedure, shortened: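 Porcine brain TRH-DE incubated with 1 mM peptide in 20 mM potassium phosphate, pH 7.5, 37 °C: screen with 0.8 μg enzyme for 18 h; rate microassays with 0.8-3.2 μg enzyme for 5 min to 18 h, in triplicate. Reactions stopped with TFA; Glp quantified by C-18 reverse-phase HPLC, UV 206 nm.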

TRH-DE [2] = target: T1, TRH-DE; experiment: discontinuous fluorometric TRH-DE assay with TRHAMC as substrate; details: measured indirectly, peptide treated as competitive inhibitor of TRHAMC hydrolysis; non-linear regression; mean±S.D.
Method: (§1) The inventor purified TRH-DE from porcine brain according to purification procedures previously published by Dr. K. Bauer, (Max-Planck-Institut, Hannover, Germany) (1). TRH-DE was purified almost 20,000 fold. […] Dipeptidyl peptidase IV (DPP-IV) (EC 3.4.14.5), purified from bovine kidney (7.7 mg ml^−1, specific activity of 17.5 U mg^−1 with Gly-ProAMC as substrate), was obtained as a gilt from Dr. C. H. Williams (Queen's University Belfast, U.K). (DPP-IV was used as the coupling enzyme used in the fluorometric assays).
(§2) One unit (U) of enzyme activity was defined as that amount catalysing the formation of one μmol of product in one minute under the standard conditions employed. […]
(§3) Determination of inhibitor constants for selected TRH-DE substrates—The HPLC assay lacked sufficient sensitivity for determining kinetic constants. […] This assay employs TRHAMC as the substrate and depends on the measurement of the fluorescence of 7-amino-4 methyl coumarin (AMC) produced as follows:
We have shown that the amount of AMC formed under these conditions is a quantitative measure of TRHAMC cleavage (23). Initial rates for the hydrolysis of TRHAMC by TRH-DE were determined in triplicate at five different substrate concentrations both in the absence and presence of at least three concentrations of peptide. […]

[3] = substrate: NC(=O)[C@@H]1CCCN1C(=O)[C@H](Cc1ccc(O)cc1)NC(=O)[C@@H]1CCC(=O)N1; experiment: as above; details: other: measured indirectly, peptide treated as competitive inhibitor of TRHAMC hydrolysis; non-linear regression; mean±S.D.; pH 7.5; 37.0 °C
Method: as §1
(§4) One unit (U) of enzyme activity was defined as that amount catalysing the formation of one μmol of product in one minute under the standard conditions employed. All incubations in the assays described below were carried out in 20 mM potassium phosphate buffer, pH 7.5, at 37° C.
as §3
(§5) We have shown that the amount of AMC formed under these conditions is a quantitative measure of TRHAMC cleavage (23). Initial rates for the hydrolysis of TRHAMC by TRH-DE were determined in triplicate at five different substrate concentrations both in the absence and presence of at least three concentrations of peptide. Ki values were obtained by non-linear regression analysis of the data collected. Determined in this way (i.e. by treating the peptide substrates as inhibitors of TRHAMC hydrolysis), these Ki values correspond to the Michaelis constants for those library peptides hydrolysed by TRH-DE (32).

[4] = substrate: Cc1cc(=O)oc2cc(NC(=O)[C@@H]3CCCN3C(=O)[C@H](Cc3c[nH]cn3)NC(=O)[C@@H]3CCC(=O)N3)ccc12; experiment: as above; details: other: Michaelis constant of TRHAMC measured directly, discontinuous assay; pH 7.5; 37.0 °C
Method: as §1, §4, §3, §5

[5] = substrate: NC(=O)[C@@H]1CCCN1C(=O)[C@H](Cc1ccccc1)NC(=O)[C@@H]1CCC(=O)N1; experiment: as above; details: other: measured indirectly, peptide treated as competitive inhibitor of TRHAMC hydrolysis; non-linear regression; mean±S.D.; pH 7.5; 37.0 °C
Method: as §1, §4, §3, §5

[6] = substrate: Cc1cc(=O)oc2cc(NC(=O)[C@@H]3CCCN3C(=O)[C@H](Cc3c[nH]cn3)NC(=O)[C@@H]3CCC(=O)N3)ccc12; experiment: continuous coupled fluorometric TRH-DE assay (TRHAMC substrate, DPP-IV coupling enzyme); details: other: Michaelis constant of TRHAMC, non-linear regression, pH 7.5, 37.0 °C
Method: as §1, §2
The reaction was monitored continuously by measuring the increase in AMC fluorescence. A linear progress curve with no discernible lag period was observed when the reaction was monitored over a period of 10 minutes. […]
In a preliminary experiment, the peptides were screened for their ability to inhibit TRH-DE activity. The initial rate of TRHAMC hydrolysis by TRH-DE was measured by incubating 5 μM TRHAMC with 1.23 μg DPP-IV and 0.32 μg TRH-DE, both in the absence and presence of each library peptide (1 mM final concentration) under standard assay conditions (23). […]
Fluorescence measurements were made using a Perkin Elmer LS 50B Luminescence Spectrometer fitted with a thernostated cell holder. […]

- Vmax (TRH-DE [1]; estimated from HPLC rates of hydrolysis using Vmax=vo{(Km+[S])/[S]}): 2.19 ± 0.16 (6) U mg^−1
- Rate of hydrolysis (TRH-DE [1]; peptide 1 mM, 37° C., Glp production by HPLC, mean±S.D.): 2.12 ± 0.16 (6) U mg^−1
- Km (TRH-DE [2]): 34 ± 6 µM
Molecule: Glp-Thi-ProNH2

B1: TRH-DE (Sus scrofa) (protein)
chain: MALDGERGEQEEEKKKKKKKKKRKKKKEEEGAKKSSSPFVATMGENDAALRAGGRGLSDPWADSVGVRPRTTERHITVHKRLVLAFAVSIVALLAVTMLAVLLSLRFDECGASIPPGADGGPAGFPARGGNESLPGSSRRDHHAGGDSSQPGAGREDTPETPSAQPPSEEEQEQWQPWTQLRLSGHLKPLHYNLMLTAFMENFTFSGEVNVEIACRNATRYVVLHASRVAVEKVQVAEDRVAGAVPVAGFFLYPQTQVLVVVLNRTLDAQRNYNLKIIYNALIENELLGFFRSSYVLHGERRFLGVTQFSPTHARKAFPCFDEPIYKATFKISIKHQATYLSLSNMPVETSVFEEDGWVTDHFSQTPLMSTYYLAWAICNFTYRETTTKSGVVVRLYARPDAIRRGSGDYALHITKRLIEFYEDYFKVPYSLPKLDLLAVPKHPYAAMENWGLSIFVEQRILLDPSVSSISYLLDVTMVIVHEICHQWFGDLVTPVWWEDVWLKEGFAHYFEFVGTDYLYPGWNMEKQRFLTDVLHEVMLLDGLASSHPVSQEVLRATDIDRVFDWIAYKKGAALIRMLANFMGHSVFQRGLQDYLTIHKYGNAARNDLWNTLSEALKRNGKYVNIQEVMDQWTLQMGYPVITIFGNTTAENRIIITQQHFIYDISAKAKPHELQNSSYLWQIPLTIVVGNRSHVSSEAIIWVSNKTEHHRITSLNKGSWLLGNINQTGYFRVNYDLRNWRLLIDQLIRNHEVLSVSNRAGLIDDAFSLARAGYLPQNIPLEIIRYLSEEKDFLPWHAASRALYPLDKLLDRMEKYNVFNEYILKQVATTYIKLGWPKNNFNGSLVQASYQHEELRREVIMLACSFGNKHCHQQASTLISDWISSNRNRIPLNVRDIVYCTGVSLLDEDVWEFIWMKFHSTTAISEKKILLEALTCSDDRNLLNRLLNLSLNSEVVLDQDAIDVIIHVARNPHGRDLAWKFFRDKWKILNTRYGEALFMNSKLISGVTEFLNTEGELKELKNFMKSYDGVAAASFSRAVETVEANVRWKMLYQDELFQWLGKALRH
notes: The inventor purified TRH-DE from porcine brain according to purification procedures previously published by Dr. K. Bauer; from tissue; host or cells: porcine brain (TRH-DE); bovine kidney (DPP-IV, gift from Dr. C. H. Williams)
- Km [3]: 15 ± 3 (4) μM
- Vmax [3]: 0.67 µmol/min/mg
- Vmax/Km [3]: 50000 µL/min/mg
- Km [4]: 3.1 ± 0.5 µM
- Vmax [4]: 0.11 µmol/min/mg
- Vmax/Km [4]: 40000 µL/min/mg
- Km [5]: 55 ± 8 (3) μM
- Vmax [5]: 1.64 µmol/min/mg
- Vmax/Km [5]: 30000 µL/min/mg
- Km [6]: 3.5 ± 0.4 µM
